Bridge positions count the residues as written; N and C are the ends. Square brackets hold non-standard residues; d marks the D form. Ends that are not written are not given here. NMeR = CN[C@@H](CCCNC(=N)N)C(=O)O
Target: T1, recombinant human integrin α4β7 (Homo sapiens, UniProt P13612+P26010)
T1 construct: purchased R&D Systems 5397-A30
T1 sequence (P13612 34-970 limits assumed): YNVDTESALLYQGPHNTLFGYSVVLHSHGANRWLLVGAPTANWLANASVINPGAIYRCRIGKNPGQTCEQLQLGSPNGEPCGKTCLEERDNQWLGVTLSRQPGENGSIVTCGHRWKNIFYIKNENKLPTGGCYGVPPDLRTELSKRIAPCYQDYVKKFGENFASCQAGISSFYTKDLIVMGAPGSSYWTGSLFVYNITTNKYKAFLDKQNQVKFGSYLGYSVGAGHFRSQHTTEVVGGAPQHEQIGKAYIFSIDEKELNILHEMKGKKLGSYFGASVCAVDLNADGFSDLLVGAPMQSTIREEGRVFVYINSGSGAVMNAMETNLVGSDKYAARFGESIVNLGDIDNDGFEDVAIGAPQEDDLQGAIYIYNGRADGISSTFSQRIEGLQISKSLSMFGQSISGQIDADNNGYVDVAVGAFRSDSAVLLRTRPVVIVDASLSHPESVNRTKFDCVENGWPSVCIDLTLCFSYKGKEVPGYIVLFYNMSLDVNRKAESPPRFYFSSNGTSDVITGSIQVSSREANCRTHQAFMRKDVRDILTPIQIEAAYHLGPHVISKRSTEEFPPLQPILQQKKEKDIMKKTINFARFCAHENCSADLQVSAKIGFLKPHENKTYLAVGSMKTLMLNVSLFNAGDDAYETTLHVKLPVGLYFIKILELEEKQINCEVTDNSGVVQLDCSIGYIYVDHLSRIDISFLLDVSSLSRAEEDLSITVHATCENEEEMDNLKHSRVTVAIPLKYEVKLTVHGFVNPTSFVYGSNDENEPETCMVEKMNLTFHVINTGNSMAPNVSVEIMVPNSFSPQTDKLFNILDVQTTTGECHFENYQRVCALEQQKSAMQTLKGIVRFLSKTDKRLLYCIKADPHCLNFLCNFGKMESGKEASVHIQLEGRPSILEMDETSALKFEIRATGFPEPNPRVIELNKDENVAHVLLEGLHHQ
T1 sequence (P26010 20-723 limits assumed): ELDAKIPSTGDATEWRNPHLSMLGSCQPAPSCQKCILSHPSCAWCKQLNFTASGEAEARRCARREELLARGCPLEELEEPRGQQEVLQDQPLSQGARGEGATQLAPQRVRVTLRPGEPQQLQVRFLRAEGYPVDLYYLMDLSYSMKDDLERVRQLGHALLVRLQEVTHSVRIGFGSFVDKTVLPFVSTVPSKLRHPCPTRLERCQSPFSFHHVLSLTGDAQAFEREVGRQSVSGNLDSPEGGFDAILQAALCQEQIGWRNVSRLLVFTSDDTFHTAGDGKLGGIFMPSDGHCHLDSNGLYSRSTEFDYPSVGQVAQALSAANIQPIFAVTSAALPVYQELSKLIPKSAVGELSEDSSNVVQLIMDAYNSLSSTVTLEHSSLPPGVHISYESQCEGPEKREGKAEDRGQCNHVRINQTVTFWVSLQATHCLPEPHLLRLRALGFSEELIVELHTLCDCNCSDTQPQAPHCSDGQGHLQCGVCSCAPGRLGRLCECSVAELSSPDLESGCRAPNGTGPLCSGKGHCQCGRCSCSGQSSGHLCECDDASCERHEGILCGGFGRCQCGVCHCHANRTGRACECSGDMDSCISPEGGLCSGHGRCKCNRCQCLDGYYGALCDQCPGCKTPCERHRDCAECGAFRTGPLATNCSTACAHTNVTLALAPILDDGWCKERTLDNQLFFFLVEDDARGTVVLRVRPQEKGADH
Assay: α4β7-MAdCAM Competition ELISA
Type: binding
Settings: N-Me-Arg substituted, as compared to SEQ ID NO:39
Experimental: α4β7-MAdCAM Competition ELISA
A nickel coated plate (Pierce # 15442) was coated with recombinant human integrin α4β7 (R&D Systems #5397-A30) at 800 ng/well and incubated at room temperature with shaking for 1 hr. The solution was then remove by shaking and blocked with assay buffer (50 mM Tris-HCl pH7.6, 150 mM NaCl, 1 mM MnCl2, 0.05% Tween-20 and 0.5% BSA) at 250 ul/well. The plate was then incubated at room temperature for 1 hr. Each well was washed 3 times with wash buffer (50 mM Tris-HCl pH7.6, 100mM NaCl, 1 mM MnCl2, 0.05% Tween-20). To each well was added 25 ul of a serial dilution (3-fold dilutions in assay buffer) of peptides starting at 20 μM. 25 ul of recombinant human MAdCAM-1 (R&D Systems #6056-MC) was then added to each well at a fixed concentration 20 nM. The final starting peptide concentration was 10 μM, and the final MAdCAM-1 concentration was 10 nM. The plates were then incubated at room temperature for 1 hr to reach binding equilibrium. The wells were then washed three times with wash buffer. 50 ul of mouse anti-human IgG1-HRP (Invitrogen # A10648) diluted in 1:2000 in assay buffer was then added to each well. The wells were incubated at room temperature for 45 min with shaking. The wells were then washed 3 times with wash buffer. […] The reaction was stopped with 2N H2SO4 and absorbance was read at 450 nm.

“SEQ ID NO: 48: integrin antagonist peptide substituted with N-Me-Arg (C[NMeR]SDTLCK; disulfide 1-7)” was tested, and the “potency for α4β7 in ELISA” value was “increased potency”.

Source: US20200017549A1, “NOVEL a4B7 PEPTIDE ANTAGONISTS” (Protagonist Therapeutics, Inc., priority 2013, published 2020)
